Where a chain is given by its changes, count along the chain named.
B1: GpH7-B3/GpL16-k0 variant Q295G (antibody, human IgG1)
heavy: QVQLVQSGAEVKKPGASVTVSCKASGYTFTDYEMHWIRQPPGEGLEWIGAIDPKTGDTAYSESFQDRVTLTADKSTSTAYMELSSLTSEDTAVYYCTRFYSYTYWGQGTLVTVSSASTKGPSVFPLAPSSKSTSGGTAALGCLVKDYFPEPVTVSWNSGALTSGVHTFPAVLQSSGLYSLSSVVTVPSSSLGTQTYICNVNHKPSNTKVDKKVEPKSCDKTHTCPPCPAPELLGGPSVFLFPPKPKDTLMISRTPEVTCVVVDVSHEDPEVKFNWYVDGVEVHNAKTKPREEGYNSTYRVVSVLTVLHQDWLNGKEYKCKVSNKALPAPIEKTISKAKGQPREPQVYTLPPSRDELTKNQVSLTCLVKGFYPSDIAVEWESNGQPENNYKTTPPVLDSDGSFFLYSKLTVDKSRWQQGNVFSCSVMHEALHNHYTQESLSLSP
light: DIVMTQSPLSLPVTPGEPASISCQASESLVHSNRNTYLHWYLQKPGQSPQLLIYKVSNRFSGVPDRFSGSGSGTDFTLKISRVEAEDVGVYYCSQNTHVPPTFGQGTKVEIE
notes: also called B3 variant; copies: 2 + 2
B2: GpH7-B3/GpL16-k0 variant Y296K (antibody, human IgG1)
heavy: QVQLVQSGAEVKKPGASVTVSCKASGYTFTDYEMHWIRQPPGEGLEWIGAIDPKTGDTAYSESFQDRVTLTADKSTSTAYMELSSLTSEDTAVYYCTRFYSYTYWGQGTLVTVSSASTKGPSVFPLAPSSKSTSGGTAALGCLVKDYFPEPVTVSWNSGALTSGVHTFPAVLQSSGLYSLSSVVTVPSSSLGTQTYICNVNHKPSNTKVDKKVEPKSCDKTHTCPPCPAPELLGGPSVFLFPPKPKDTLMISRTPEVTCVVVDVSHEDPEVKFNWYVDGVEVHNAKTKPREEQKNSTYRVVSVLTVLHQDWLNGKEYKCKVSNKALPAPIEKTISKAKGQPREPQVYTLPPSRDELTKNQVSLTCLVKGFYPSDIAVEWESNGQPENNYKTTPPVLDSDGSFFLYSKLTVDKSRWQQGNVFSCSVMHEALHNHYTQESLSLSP
light: B1 light
notes: as for B1
B3: GpH7-B3/GpL16-k0 variant Q295Y (antibody, human IgG1)
heavy: not shown
light: B1 light
notes: as for B1
B4: GpH7-B3/GpL16-k0 variant Q295H (antibody, human IgG1)
heavy: not shown
light: B1 light
notes: as for B1
B5: GpH7-B3/GpL16-k0 variant S298P (antibody, human IgG1)
heavy: not shown
light: B1 light
notes: as for B1
B6: GpH7-B3/GpL16-k0 variant S298R (antibody, human IgG1)
heavy: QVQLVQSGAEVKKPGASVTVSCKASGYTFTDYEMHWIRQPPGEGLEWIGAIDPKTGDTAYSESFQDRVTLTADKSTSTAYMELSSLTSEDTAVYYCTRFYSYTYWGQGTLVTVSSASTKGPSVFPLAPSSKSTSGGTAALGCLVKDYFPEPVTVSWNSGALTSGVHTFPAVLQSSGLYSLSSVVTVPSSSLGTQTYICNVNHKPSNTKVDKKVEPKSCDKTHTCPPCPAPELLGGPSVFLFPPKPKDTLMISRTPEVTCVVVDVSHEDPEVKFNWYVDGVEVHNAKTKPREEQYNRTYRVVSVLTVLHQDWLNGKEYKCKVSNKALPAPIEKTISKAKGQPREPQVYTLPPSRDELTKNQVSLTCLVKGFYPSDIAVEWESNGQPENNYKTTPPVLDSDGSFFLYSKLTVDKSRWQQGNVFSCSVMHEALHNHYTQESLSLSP
light: B1 light
notes: as for B1
B7: GpH7-B3/GpL16-k0 variant Q295R (antibody, human IgG1)
heavy: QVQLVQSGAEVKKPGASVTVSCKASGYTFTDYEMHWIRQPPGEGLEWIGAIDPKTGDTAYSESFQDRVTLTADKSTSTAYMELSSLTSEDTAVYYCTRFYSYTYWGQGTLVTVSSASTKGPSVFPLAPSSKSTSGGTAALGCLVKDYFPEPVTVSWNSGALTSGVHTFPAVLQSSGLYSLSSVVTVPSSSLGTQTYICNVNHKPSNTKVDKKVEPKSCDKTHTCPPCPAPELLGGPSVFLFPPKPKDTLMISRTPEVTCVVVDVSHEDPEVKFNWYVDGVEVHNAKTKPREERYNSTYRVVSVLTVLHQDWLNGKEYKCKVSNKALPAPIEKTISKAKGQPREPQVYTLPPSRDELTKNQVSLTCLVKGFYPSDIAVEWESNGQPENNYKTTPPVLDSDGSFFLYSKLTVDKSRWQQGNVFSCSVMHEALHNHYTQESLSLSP
light: B1 light
notes: as for B1
B8: GpH7-B3/GpL16-k0 variant Q295N (antibody, human IgG1)
heavy: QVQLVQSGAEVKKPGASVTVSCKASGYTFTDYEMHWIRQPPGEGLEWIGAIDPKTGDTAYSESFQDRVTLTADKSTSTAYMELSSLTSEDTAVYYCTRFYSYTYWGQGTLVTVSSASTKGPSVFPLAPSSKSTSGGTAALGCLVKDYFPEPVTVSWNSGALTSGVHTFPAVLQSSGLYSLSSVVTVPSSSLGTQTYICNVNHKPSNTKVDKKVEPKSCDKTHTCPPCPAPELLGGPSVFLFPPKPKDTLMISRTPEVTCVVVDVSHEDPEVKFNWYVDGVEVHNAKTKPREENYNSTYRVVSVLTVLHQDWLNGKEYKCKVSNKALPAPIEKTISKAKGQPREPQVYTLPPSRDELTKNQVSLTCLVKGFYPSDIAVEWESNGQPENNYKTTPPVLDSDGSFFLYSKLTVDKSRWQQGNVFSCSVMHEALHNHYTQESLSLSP
light: B1 light
notes: as for B1
B9: GpH7-B3/GpL16-k0 variant S298Y (antibody, human IgG1)
heavy: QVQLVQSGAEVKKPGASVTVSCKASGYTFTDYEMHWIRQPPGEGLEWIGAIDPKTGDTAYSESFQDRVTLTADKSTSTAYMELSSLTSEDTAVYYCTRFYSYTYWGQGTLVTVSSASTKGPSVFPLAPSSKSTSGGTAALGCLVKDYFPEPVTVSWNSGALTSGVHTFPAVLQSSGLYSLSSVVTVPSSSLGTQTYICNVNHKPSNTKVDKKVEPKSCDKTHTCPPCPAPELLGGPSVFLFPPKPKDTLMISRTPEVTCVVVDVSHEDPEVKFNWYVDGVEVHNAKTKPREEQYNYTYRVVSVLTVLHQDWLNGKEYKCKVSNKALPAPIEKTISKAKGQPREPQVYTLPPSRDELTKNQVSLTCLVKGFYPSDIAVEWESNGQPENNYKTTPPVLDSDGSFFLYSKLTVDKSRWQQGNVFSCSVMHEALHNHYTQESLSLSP
light: B1 light
notes: as for B1
B10: GpH7-B3/GpL16-k0 variant Y296G (antibody, human IgG1)
heavy: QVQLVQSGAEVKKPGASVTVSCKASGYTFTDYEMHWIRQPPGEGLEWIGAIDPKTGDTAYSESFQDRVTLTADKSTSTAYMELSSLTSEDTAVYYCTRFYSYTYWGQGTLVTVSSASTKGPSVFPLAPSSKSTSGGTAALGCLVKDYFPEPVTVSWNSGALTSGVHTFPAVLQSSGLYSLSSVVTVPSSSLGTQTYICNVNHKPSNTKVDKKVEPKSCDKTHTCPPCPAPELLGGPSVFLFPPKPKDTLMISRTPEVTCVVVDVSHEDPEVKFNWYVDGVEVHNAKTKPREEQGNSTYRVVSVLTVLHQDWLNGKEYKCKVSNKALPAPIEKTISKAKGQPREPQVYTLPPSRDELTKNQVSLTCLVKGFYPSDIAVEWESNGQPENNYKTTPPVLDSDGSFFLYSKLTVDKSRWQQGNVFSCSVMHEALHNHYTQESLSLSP
light: B1 light
notes: as for B1
B11: GpH7-B3/GpL16-k0 variant S298G (antibody, human IgG1)
heavy: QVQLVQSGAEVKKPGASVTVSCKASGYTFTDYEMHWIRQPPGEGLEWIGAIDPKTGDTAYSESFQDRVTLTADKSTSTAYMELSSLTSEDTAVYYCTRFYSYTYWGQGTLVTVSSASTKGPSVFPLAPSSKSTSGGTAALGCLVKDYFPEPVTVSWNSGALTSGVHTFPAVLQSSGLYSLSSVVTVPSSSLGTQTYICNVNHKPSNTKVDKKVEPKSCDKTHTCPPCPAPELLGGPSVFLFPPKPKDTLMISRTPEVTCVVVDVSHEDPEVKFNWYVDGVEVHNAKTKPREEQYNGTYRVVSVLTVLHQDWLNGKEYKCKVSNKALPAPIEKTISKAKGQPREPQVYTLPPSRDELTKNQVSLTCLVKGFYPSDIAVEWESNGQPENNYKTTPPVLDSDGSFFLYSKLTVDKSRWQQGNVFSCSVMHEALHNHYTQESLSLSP
light: B1 light
notes: as for B1
B12: GpH7-B3/GpL16-k0 variant Y296R (antibody, human IgG1)
heavy: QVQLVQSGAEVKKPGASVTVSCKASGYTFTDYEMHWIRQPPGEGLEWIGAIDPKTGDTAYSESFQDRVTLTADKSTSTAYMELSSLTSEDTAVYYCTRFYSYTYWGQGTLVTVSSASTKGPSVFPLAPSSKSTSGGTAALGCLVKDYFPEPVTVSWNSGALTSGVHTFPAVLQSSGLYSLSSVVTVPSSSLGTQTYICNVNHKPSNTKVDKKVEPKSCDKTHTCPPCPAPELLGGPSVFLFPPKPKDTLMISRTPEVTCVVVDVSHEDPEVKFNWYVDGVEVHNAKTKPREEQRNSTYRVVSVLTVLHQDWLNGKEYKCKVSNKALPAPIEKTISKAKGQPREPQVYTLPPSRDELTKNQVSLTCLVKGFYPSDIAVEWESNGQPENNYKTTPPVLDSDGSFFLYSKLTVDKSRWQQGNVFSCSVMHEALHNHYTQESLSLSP
light: B1 light
notes: as for B1
B13: GpH7-B3/GpL16-k0 variant S298K (antibody, human IgG1)
heavy: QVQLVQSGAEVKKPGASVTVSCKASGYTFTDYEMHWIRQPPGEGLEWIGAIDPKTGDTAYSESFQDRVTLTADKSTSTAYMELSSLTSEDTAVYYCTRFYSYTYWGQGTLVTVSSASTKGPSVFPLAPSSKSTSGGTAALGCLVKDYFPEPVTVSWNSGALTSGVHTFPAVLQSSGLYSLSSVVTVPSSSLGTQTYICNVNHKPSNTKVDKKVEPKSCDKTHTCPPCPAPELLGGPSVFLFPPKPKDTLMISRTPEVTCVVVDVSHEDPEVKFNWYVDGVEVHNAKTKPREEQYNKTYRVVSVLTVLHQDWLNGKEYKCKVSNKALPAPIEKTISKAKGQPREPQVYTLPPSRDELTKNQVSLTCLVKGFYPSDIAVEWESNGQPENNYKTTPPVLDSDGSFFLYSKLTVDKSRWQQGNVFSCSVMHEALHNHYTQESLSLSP
light: B1 light
notes: as for B1
B14: GpH7-B3/GpL16-k0 variant Q295S (antibody, human IgG1)
heavy: not shown
light: B1 light
notes: as for B1
B15: GpH7-B3/GpL16-k0 variant Q295W (antibody, human IgG1)
heavy: not shown
light: B1 light
notes: as for B1
B16: IL6R-BP130/IL6R-L (antibody, human IgG1, name in EU numbering)
heavy: QVQLQESGPGLVKPSETLSLTCAVSGHSISHDHAWSWVRQPPGEGLEWIGFISYSGITNYNPSLQGRVTISRDNSKNTLYLQMNSLRAEDTAVYYCARSLARTTAMDYWGEGTLVTVSSASTKGPSVFPLAPSSKSTSGGTAALGCLVKDYFPEPVTVSWNSGALTSGVHTFPAVLQSSGLYSLSSVVTVPSSSLGTQTYICNVNHKPSNTKVDKKVEPKSCDKTHTCPPCPAPDLLGGDSVFLFPPKPKDTLMISRTPEVTCVVVDVSHEDPEVKFNWYVDGVEVHNAKTKPREEQYNSTYRVVSVLTVLHQDWLNGKEYKCKMSNKALPKPIEKTISKAKGQPREPQVYTLPPSRDELTKNQVSLTCLVKGFYPSDIAVEWESNGQPENNYKTTPPVLDSDGSFFLYSKLTVDKSRWQQGNVFSCSVMHEALHNHYTQESLSLSP
light: DIQMTQSPSSLSASVGDRVTITCRASQDISSYLNWYQQKPGKAPKLLIYYTSRLHSGVPSRFSGSGSGTDFTFTISSLQPEDIATYYCQQGNTLPYTFGQGTKVEIK
notes: copies: 2 + 2
B17: IL6R-BP178/IL6R-L (antibody, human IgG1, name in EU numbering)
heavy: B16 heavy with G239D, P273G, M325V
light: B16 light
notes: the list runs over r43 and r44; copies: 2 + 2
B18: IL6R-BP176/IL6R-L (antibody, human IgG1, name in EU numbering)
heavy: B16 heavy with M325V, K328D
light: B16 light
notes: copies: 2 + 2
B19: IL6R-BP131/IL6R-L (antibody, human IgG1, name in EU numbering)
heavy: B16 heavy with G239D, M325V
light: B16 light
notes: copies: 2 + 2
B20: IL6R-BP152/IL6R-L (antibody, human IgG1, name in EU numbering)
heavy: B16 heavy with L236Y, G239D, Y298D, M325V, K328A, K332R
light: B16 light
notes: the list runs over r38 and r39; copies: 2 + 2
B21: IL6R-BP146/IL6R-L (antibody, human IgG1, name in EU numbering)
heavy: B16 heavy with D235E, L236Y, G239D, M325V, K328A, K332A
light: B16 light
notes: copies: 2 + 2

Target: T1, human FcγRIa (human, UniProt P12314 16-292, limits assumed)
T1 construct: also called FcgRIa; CD64
Test: SPR (Biacore), antibody captured, FcγR as analyte; amount bound / that of GpH7-B3/GpL16-k0 x 100;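 further: FcγR binding response divided by the captured antibody amount before comparison, measured at 25 °C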
T1 sequence (P12314 16-292 limits assumed): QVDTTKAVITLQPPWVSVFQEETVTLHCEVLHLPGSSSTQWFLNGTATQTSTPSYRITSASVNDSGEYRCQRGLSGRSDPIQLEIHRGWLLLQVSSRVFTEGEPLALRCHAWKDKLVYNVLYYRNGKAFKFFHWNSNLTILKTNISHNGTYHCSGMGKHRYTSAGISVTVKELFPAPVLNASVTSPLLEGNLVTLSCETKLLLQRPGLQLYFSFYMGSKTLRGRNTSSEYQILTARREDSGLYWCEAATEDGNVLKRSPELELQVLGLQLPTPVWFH
Experimental: (§1) Interaction between each modified antibody and Fcγ receptor prepared in the manner described above was analyzed using the BIACORE™ T100 surface plasmon resonance system (GE Healthcare), BIACORE™ T200 surface plasmon resonance system (GE Healthcare), BIACORE™ A100 surface plasmon resonance system or BIACORE™ 4000 surface plasmon resonance system. HBS-EP+(GE Healthcare) was used for the running buffer, and measurements were carried out at 25° C. The chips used were chips in which antigen peptides, Protein A (Thermo Scientific), Protein A/G (Thermo Scientific) or Protein L (ACTIGEN® protein (Alltech or BioVision) were immobilized on the Series S Sensor Chip CM5 (GE Healthcare) or Series S Sensor Chip CM4 (GE Healthcare) by amine coupling, or chips in which preliminarily biotinylated antigen peptides were allowed to interact and then immobilized on the Series S Sensor Chip SA (certified) (GE Healthcare). The target antibodies were captured on these sensor chips, Fcγ receptor diluted with the running buffer was allowed to interact, followed by measurement of the amount of bound antibody. The amounts bound were compared between antibodies. However, since the amount of Fcγ receptor bound depends on the amount of captured antibody, the values used for comparison were first corrected by dividing the amount of Fcγ receptor bound by the captured amount of each antibody. Through reaction with 10 mM glycine-HCl at pH 1.5, the sensor chips were regenerated by washing off antibody captured on the sensor chips and used repeatedly.
(§2) Binding strength was evaluated according to the following method based on the results of analyzing the interaction with each FcγR. […] That value was then further multiplied by 100, and the resulting value was used as an indicator of relative binding activity to each FcγR.

Row | Binder | relative binding activity [GpH7-B3/GpL16-k0 = 100]
1 | B1 | 89
2 | B2 | 99
3 | B3 | 95
4 | B4 | 97
5 | B5 | 15
6 | B6 | 92
7 | B7 | 100
8 | B8 | 99
9 | B9 | 100
10 | B10 | 100
11 | B11 | 100
12 | B12 | 100
13 | B13 | 88
14 | B14 | 100
15 | B15 | 81

Target: T2, human FcγRIIa(R) (human, UniProt P12318 36-217)
T2 construct: also called FcgRIIaR; FcγRIIa type R
T2 chain: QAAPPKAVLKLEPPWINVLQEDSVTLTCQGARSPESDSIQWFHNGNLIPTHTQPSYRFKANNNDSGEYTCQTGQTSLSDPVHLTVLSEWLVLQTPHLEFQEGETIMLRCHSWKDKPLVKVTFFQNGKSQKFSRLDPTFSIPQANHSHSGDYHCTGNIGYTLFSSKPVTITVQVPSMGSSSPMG
Test: as above
Experimental: as §1, §2

Row | Binder | relative binding activity [GpH7-B3/GpL16-k0 = 100]
16 | B1 | 36
17 | B2 | 70
18 | B3 | 38
19 | B4 | 45
20 | B5 | 0
21 | B6 | 62
22 | B7 | 61
23 | B8 | 56
24 | B9 | 33
25 | B10 | 77
26 | B11 | 89
27 | B12 | 77
28 | B13 | 79
29 | B14 | 52
30 | B15 | 26

Target: T3, human FcγRIIa(H) (human, UniProt P12318 36-217)
T3 construct: also called FcgRIIaH; FcγRIIa type H
T3 sequence: T2 chain with R133H
Test: as above
Experimental: as §1, §2

Row | Binder | relative binding activity [GpH7-B3/GpL16-k0 = 100]
31 | B1 | 41
32 | B2 | 66
33 | B3 | 70
34 | B4 | 78
35 | B5 | 0
36 | B6 | 36
37 | B7 | 94
38 | B8 | 74
39 | B9 | 35
40 | B10 | 83
41 | B11 | 43
42 | B12 | 74
43 | B13 | 38
44 | B14 | 67
45 | B15 | 38

Target: T4, human FcγRIIb (human, UniProt P31994 43-217, limits assumed)
T4 construct: also called FcgRIIb; FcγIIB
T4 sequence: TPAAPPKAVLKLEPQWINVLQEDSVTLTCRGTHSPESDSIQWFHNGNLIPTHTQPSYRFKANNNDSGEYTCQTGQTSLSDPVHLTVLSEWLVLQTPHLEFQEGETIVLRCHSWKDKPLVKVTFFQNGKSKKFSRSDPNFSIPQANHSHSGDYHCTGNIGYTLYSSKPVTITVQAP
Test: as above
Experimental: as §1, §2

Row | Binder | relative binding activity [GpH7-B3/GpL16-k0 = 100]
46 | B1 | 28
47 | B2 | 45
48 | B3 | 24
49 | B4 | 29
50 | B5 | -1
51 | B6 | 22
52 | B7 | 46
53 | B8 | 41
54 | B9 | 23
55 | B10 | 58
56 | B11 | 68
57 | B12 | 52
58 | B13 | 34
59 | B14 | 40
60 | B15 | 16

Target: T5, human FcγRIIIa(F) (human, UniProt P08637 17-208, limits assumed)
T5 construct: also called FcgRIIIaF; FcγRIIIa allotype F158
Test: as above
Experimental: as §1, §2

T5 sequence (P08637 other isoform, or with tags, fused parts or gaps limits assumed): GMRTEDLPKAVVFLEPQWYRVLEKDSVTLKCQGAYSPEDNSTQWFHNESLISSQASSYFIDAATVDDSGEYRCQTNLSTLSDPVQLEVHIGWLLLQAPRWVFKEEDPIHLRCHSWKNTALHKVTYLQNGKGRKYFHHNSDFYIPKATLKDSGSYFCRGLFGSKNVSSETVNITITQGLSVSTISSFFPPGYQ

Row | Binder | relative binding activity [GpH7-B3/GpL16-k0 = 100]
61 | B1 | 55
62 | B2 | 21
63 | B3 | 49
64 | B4 | 52
65 | B5 | 0
66 | B6 | 20
67 | B7 | 52
68 | B8 | 68
69 | B9 | 71
70 | B10 | 21
71 | B11 | 59
72 | B12 | 38
73 | B13 | 25
74 | B14 | 87
75 | B15 | 10

Target: T6, human FcγRIa (human, UniProt P12314 16-292, limits assumed)
T6 construct: also called FcgRIa; FcγRI (CD64)
Test: SPR (Biacore), FcγR over captured antibody; binding amount divided by that of IL6R-BF648/IL6R-L x 100
T6 sequence (P12314 16-292 limits assumed): as the sequence (P12314 16-292 limits assumed) above
Experimental: (§3) According to the following method, relative binding activities were calculated for the results of analyzing interactions with the respective FcγRs.

Row | Binder | relative binding activity
76 | B16 | 104 relative (IL6R-BF648/IL6R-L = 100)
77 | B17 | 51 relative (IL6R-BF648/IL6R-L = 100)
78 | B18 | 102 relative (IL6R-BF648/IL6R-L = 100)
79 | B19 | 33 relative (IL6R-BF648/IL6R-L = 100)
80 | B20 | 34 relative (IL6R-BF648/IL6R-L = 100)

Target: T7, human FcγRIIa type R (human, UniProt P12318 36-217)
T7 construct: also called FcgRIIaR; FcγRIIa(R)
T7 chain: T2 chain
Test: as above
Experimental: as §3

Row | Binder | relative binding activity
81 | B16 | 272 relative (IL6R-BF648/IL6R-L = 100)
82 | B17 | 653 relative (IL6R-BF648/IL6R-L = 100)
83 | B18 | 201 relative (IL6R-BF648/IL6R-L = 100)
84 | B21 | 445 relative (IL6R-BF648/IL6R-L = 100)
85 | B19 | 364 relative (IL6R-BF648/IL6R-L = 100)
86 | B20 | 638 relative (IL6R-BF648/IL6R-L = 100)

Target: T8, human FcγRIIa type H (human, UniProt P12318 36-217)
T8 construct: also called FcgRIIaH; FcγRIIa(H)
T8 sequence: T2 chain with R133H
Test: as above
Experimental: as §3

Row | Binder | relative binding activity
87 | B16 | 224 relative (IL6R-BF648/IL6R-L = 100)
88 | B17 | 259 relative (IL6R-BF648/IL6R-L = 100)
89 | B18 | 128 relative (IL6R-BF648/IL6R-L = 100)
90 | B21 | 203 relative (IL6R-BF648/IL6R-L = 100)
91 | B19 | 253 relative (IL6R-BF648/IL6R-L = 100)
92 | B20 | 548 relative (IL6R-BF648/IL6R-L = 100)

Target: T9, human FcγRIIb (human, UniProt P31994 43-217, limits assumed)
T9 construct: also called FcgRIIb; FcγIIB
T9 sequence: T4 sequence
Test: as above
Experimental: as §3

Row | Binder | relative binding activity
93 | B17 | 179 relative (IL6R-BF648/IL6R-L = 100)
94 | B18 | 147 relative (IL6R-BF648/IL6R-L = 100)
95 | B21 | 156 relative (IL6R-BF648/IL6R-L = 100)
96 | B20 | 178 relative (IL6R-BF648/IL6R-L = 100)

Target: T10, human FcγRIIIa type V (human, UniProt P08637 17-208, limits assumed)
T10 construct: also called FcgRIIIaV; FcγRIIIa(V)
Test: as above
Experimental: as §3

Row | Binder | relative binding activity
97 | B19 | 118 relative (IL6R-BF648/IL6R-L = 100)
